Experiments:
Assay in all cases: fluorescence anisotropy
Details in all cases: fluorescein-12-UTP incorporated during transcription; 50 mM Tris pH 7.5, 40 mM KCl, 10 mM MgCl2, 1 mM DTT, 10 nM fluorescein-labeled RNA, 21 C
[1] = tested on: A3C-A3Hhap II (synthetic double domain chimera) (Homo sapiens (synthetic chimera))
A3G (Homo sapiens) = tested on: A3G (Homo sapiens)
A3Hhap II (Homo sapiens) = tested on: A3Hhap II (Homo sapiens)

With HIV-1 5'UTR RNA (nt 1-497) as the substance, how does the Kd [1] read?
The Kd was 0.03 nM.

And the Kd (A3G (Homo sapiens))?
Its Kd is 6.36 nM.

What about the Kd (A3Hhap II (Homo sapiens)) of the same substance?
The Kd was 0.52 nM.

— paper PMC8266076
